Results published in US20220204643A1 (published 2022).
Values belong to the binder of their own block, whether it stands above or below them.

Columns and labels:
[1] = molecular target: T1, glucuronidase, beta pseudogene (human); assay: protein array
T1 construct: on protein array; also called BC025996.2_frag
T1 chain: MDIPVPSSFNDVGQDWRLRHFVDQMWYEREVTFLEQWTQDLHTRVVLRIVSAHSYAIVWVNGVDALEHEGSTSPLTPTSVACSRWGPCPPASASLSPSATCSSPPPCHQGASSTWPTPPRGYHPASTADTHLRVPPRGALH

[2] = molecular target: T2, oxidation resistance 1, transcript variant 1 (human, UniProt Q8N573 90-874, limits assumed); assay: protein array
T2 construct: on protein array; also called OXR1
T2 sequence: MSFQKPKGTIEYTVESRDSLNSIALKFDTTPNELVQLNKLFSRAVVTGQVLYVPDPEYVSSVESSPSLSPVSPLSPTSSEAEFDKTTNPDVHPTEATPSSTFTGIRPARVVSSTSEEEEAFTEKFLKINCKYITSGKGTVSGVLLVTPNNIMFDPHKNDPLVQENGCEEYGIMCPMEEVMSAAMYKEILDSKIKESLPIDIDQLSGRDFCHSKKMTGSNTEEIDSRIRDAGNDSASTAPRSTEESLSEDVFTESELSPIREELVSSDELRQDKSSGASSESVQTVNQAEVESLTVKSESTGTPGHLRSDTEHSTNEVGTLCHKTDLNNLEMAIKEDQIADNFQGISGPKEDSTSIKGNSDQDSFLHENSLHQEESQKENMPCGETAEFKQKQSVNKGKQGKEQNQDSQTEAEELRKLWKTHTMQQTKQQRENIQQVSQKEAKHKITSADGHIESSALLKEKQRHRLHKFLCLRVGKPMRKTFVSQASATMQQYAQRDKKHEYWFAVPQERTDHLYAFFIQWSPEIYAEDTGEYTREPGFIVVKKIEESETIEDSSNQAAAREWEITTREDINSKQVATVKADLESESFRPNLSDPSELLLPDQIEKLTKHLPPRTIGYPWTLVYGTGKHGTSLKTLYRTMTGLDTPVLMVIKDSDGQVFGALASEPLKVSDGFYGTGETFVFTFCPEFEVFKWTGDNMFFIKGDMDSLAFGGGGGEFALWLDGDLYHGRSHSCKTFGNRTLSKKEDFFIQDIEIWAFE

tubulin gamma 1 = molecular target: T3, tubulin gamma 1 (human, UniProt P23258 1-451); assay: protein array
T3 construct: on protein array; also called TUBG1
T3 sequence (P23258 whole entry): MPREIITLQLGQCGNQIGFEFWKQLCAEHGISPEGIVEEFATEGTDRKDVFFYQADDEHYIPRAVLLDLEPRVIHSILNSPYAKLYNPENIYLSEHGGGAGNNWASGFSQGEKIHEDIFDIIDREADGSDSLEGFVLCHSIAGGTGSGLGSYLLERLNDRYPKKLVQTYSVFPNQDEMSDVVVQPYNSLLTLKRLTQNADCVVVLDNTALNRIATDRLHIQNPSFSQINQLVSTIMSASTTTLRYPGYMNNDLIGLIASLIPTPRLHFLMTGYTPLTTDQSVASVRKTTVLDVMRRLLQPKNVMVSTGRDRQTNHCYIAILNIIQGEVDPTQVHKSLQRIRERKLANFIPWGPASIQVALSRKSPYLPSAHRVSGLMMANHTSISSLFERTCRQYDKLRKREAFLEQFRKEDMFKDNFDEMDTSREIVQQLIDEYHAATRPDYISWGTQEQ

F-box protein 2 = molecular target: T4, F-box protein 2 (human, UniProt Q9UK22 1-296); assay: protein array
T4 construct: on protein array; also called FBXO2
T4 sequence: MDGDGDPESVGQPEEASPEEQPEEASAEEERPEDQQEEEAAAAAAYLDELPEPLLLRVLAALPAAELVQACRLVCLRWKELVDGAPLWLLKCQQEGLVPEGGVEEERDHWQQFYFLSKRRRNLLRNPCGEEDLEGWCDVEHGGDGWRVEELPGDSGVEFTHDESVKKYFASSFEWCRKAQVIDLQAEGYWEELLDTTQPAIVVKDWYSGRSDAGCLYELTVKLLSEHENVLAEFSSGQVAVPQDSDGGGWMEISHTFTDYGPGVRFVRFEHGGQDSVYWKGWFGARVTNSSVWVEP

[3] = molecular target: T5, CRK like proto-oncogene, adaptor protein, transcript variant 1 (human, UniProt P46109 1-303); assay: protein array, with experimental replicate
T5 construct: on protein array
T5 sequence (P46109 whole entry, change not shown): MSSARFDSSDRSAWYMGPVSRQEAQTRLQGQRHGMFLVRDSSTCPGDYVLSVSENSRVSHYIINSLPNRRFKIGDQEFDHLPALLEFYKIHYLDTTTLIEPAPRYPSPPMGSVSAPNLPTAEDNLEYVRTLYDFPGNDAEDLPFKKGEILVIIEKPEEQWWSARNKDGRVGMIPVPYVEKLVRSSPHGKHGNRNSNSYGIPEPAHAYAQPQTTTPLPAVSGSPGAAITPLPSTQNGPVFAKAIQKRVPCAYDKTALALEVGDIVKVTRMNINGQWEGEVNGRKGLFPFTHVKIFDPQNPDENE

DEAD-box helicase 53 = molecular target: T6, DEAD-box helicase 53 (human, UniProt Q86TM3 1-631); assay: protein array
T6 construct: on protein array; also called DDX53
T6 sequence (Q86TM3 other isoform, or with tags, fused parts or gaps limits assumed): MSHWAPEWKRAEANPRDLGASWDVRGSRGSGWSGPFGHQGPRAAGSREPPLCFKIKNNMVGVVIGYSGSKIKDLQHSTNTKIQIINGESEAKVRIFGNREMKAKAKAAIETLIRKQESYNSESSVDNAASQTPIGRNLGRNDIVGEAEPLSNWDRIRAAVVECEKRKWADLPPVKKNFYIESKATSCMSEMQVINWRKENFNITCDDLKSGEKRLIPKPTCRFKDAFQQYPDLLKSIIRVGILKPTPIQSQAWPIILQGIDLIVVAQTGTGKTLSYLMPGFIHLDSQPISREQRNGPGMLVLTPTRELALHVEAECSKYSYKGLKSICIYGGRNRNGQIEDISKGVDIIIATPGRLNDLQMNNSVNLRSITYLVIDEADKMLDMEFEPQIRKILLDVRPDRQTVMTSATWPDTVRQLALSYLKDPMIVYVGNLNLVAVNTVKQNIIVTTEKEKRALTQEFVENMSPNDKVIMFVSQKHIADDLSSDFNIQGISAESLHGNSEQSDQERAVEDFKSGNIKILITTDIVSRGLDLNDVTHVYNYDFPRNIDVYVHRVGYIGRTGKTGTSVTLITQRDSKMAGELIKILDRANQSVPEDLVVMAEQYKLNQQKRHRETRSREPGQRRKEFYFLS

[4] = molecular target: T7, Vezatin, adherens junctions transmembrane protein (human, UniProt Q9HBM0 56-779 at identity 0.99)); assay: protein array
T7 construct: on protein array; also called VEZT
T7 chain: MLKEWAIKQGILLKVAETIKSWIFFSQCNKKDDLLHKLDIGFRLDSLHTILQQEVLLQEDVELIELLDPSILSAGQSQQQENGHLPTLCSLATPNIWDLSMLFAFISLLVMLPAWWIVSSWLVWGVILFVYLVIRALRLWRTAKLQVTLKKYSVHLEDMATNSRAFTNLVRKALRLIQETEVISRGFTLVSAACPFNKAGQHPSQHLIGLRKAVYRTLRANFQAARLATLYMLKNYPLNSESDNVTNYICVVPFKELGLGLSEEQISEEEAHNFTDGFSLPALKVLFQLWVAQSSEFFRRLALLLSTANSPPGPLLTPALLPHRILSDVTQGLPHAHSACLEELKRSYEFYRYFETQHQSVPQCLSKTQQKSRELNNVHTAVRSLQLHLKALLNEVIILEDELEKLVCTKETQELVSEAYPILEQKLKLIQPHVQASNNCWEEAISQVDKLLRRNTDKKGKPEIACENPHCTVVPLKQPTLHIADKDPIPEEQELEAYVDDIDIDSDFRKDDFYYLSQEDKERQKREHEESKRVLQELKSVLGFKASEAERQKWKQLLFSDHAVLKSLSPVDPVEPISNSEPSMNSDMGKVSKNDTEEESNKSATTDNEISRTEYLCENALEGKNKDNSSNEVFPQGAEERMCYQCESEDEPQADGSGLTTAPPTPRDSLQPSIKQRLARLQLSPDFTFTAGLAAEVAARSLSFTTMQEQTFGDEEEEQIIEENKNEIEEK

[5] = molecular target: T8, nudix hydrolase 22, transcript variant 2 (human, UniProt Q9BRQ3 1-303); assay: protein array
T8 construct: on protein array; also called NUDT22
T8 chain: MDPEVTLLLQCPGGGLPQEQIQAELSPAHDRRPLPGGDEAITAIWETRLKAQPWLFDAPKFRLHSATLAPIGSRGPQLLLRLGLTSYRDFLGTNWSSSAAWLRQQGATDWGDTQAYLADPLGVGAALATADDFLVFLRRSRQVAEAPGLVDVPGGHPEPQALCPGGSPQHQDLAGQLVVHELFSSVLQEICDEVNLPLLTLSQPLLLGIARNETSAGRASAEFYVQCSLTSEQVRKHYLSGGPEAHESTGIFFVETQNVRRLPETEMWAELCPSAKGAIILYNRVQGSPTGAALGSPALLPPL

[6] = molecular target: T9, Rna polymerase iii subunit g (human, UniProt O15318 1-223); assay: protein array
T9 construct: on protein array; also called POLR3G
T9 sequence: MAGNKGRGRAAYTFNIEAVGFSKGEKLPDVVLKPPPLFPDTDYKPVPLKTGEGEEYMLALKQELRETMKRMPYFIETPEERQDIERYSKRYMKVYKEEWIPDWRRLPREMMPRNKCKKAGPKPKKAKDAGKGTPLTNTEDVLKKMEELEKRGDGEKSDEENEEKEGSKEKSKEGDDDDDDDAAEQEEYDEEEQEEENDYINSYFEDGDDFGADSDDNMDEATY

[7] = molecular target: T10, grancalcin, transcript variant 4 (human, UniProt P28676 1-217); assay: protein array
T10 construct: on protein array; also called GCA
T10 sequence: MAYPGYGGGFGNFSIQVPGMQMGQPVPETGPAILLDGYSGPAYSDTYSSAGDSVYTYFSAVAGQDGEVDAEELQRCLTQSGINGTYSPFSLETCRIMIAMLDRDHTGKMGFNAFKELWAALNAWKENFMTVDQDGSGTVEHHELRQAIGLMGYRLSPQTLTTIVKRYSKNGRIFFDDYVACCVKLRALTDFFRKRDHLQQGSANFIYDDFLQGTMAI

[8] = molecular target: T11, sorting nexin 1, transcript variant 1 (human, UniProt Q13596 1-522); assay: protein array
T11 construct: on protein array; also called SNX1
T11 sequence (Q13596 whole entry, change not shown): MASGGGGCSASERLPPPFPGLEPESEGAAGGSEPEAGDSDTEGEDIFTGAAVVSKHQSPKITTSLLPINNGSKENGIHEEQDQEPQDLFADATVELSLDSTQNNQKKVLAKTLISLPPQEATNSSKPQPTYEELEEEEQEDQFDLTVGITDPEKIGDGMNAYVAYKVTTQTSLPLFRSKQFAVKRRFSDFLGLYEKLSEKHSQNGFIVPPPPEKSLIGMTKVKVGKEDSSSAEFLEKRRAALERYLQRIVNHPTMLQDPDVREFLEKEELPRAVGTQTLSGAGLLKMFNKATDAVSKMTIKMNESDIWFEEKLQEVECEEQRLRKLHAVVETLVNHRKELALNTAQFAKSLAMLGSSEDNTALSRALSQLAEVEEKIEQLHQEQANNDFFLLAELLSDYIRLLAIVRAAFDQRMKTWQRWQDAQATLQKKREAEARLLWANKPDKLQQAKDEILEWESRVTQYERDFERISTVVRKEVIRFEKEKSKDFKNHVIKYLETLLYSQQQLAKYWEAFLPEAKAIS

B1: TBRE1006 (antibody, V domains shown)
VH: QVQLVQSGAEVKKPGASVKVSCKASGYIFTSYAIHWVRQAPGQRLEWMGWINAGNGNTKYSQKFQGRVTITRDTSANTAYMELSSLRSEDTAIYYCARDIAVAITNYFGSWGQGTLVTVSS
VL: EIVLTQSPATLSLSPGERATLSCRASQSVGSYLAWYQQKPGQAPRLLIYDASNRATGIPARFSGSGSGTDFTLTISSLEPEDFAVYYCQQGSNWLALTFGGGTKVEIKR
notes: VH/VL only
- binding result [1]: binds

B2: TPRO1001 (antibody, V domains shown)
VH: EVQLVQSGAEVKKPGESLRISCKGSGYSFTSFWISWVRQMPGKGLEWMGRIDPSDSYTNYSPSFQGHVTISADKSISTAFLQWSSLKASDTAMYYCARHQQKYSPISPLDYWGQGTLVTVSS
VL: QSALTQPASVSGSPGQSITISCTGTSSDVGGYNYVSWYQQHPGKAPKLMIYDVSNRPSGVSNRFSGSKSGNTASLTISGLQAEDEADYYCSSYTSSSSLVFGGGTKVTVLG
notes: VH/VL tied via antigen in summary, not by name in this stretch
- binding result [2]: binds

B3: TPAN1007 (antibody, V domains shown)
VH: PVQLVQSGAEVKKPGESLKISCQGSGYNFSRYWIGWVRQMPGKGLEWMGVVFPGDSDIRYSLSFQGHITIYADNSISTAYLQWSSLKASDTAIYYCATTSTMPMPTRGRDWFDPWGQGTLVTVSS
VL: PSVLTQPPSVSGAPGQRVTISCTGSSSNIGAGYDVHWYQQLPGTAPKLLIYANTNRPSGVPDRFSGSKSGTSASLAITGLQAEDEADYYCQSYDNSLSGGVFGGGTKLTVLG
notes: as for B2
- binding result (tubulin gamma 1): binds
- binding result (F-box protein 2): binds

B4: TPAN1006 (antibody, V domains shown)
VH: QVQLVQSGAEVKKPGASVKLSCKPSGYTFSSYYIHWLRQAPGQGLEWMGIINPSGGYTSSAQKFQGRVTMTRDTSTSTIYMELSSLRAEDTAVYYCARRGEVGTMVRVFRKPFDYWGQGTLVTVSS
VL: QSVLTQPPSVSGAPGQRVTISCTGSSSNIGAQYDVHWYKVIPGTAPKLLIYGNDNRPSGVPDRFSGSKSGTSASLAITGLQSEDEADYYCQSNDISLSGSVVFGGGTKLTVLG
notes: as for B2
- binding result [3]: binds

B5: TOVA1005 (antibody, V domains shown)
VH: QITLKESGPTLVKPTQTLTLTCTFSGFSLSTNGVGVGWIRQPPGKALEWLALINWDDDKRYSPSLKSRLTITKDTSKNQVVLTMTNLDPVDTATYYCVHARDDYGDSAWSTGPVWGQGTLVTVSS
VL: DFLLTQPHSVSESPGKTVTISCTRSSGSIASNYVQWYQQRPGSSPSTVIYEDHQRPSGVPGRFSGSIDSSSNSASLTISGLKTEDEADYFCQSSDSNNHVVFGGGTKLTVLG
notes: as for B2
- binding result (DEAD-box helicase 53): binds
- binding result [4]: binds

More lines, now with the values ahead:

- binding result [5]: binds
B6: TOVA1007 (antibody, V domains shown)
VH: PVQLQESGPGLVNPSQTLSLTCTVSGGSISSGGYCWSWVRQHPGKGLEWIGCIYYIGTTYYMRSLKSRLIISIDTSKNQFSLKLTSVTAADSAVYYCARGGELLGGFGYSGMDVWGQGTTVTVSS
VL: not shown
notes: as for B2

- binding result [6]: binds
B7: TPAN1003 (antibody, V domains shown)
VH: QVQLVQSGAEVKKPGASVKISCQAFGYNFIDNAIHWVRQAPGQRPEWMGWINAGNGNTRYSQNFQGRVTITKVTSASTAYMEMSRLKSEDTAVYFCARSSKWTDWHFDYWGQGTLVTVSS
VL: EIVLTQSPGTLSLSPGETATLSCRASQSVANNYLAWHQQKPGQAPRLLIYGASKRAAGIPDRFSGSGSGTEFTLTISRLEPEDCAVYYCQEYVKSPGFAFGPGTRVDIKR
notes: as for B2

- binding result [7]: binds
B8: TPAN1001 (antibody, V domains shown)
VH: QVQLVQSGAEVKKPGSSVKVSCKASRGTFSNHAVSWVRQAPGQGLEWVGGIIPVFGPPNYAQKFRGRVTITADRSTNTAYMELNSLRSEDTAVYYCARTQWGTDVEATNPYYYFMDVWGKGTTVTVSS
VL: EIVLTQSPGTLSLSPGHRATLSCRASQDVASTYLAWYQQKPGQAPRLLIYGASSRATGIPDRFSGSGSGTDFTLTISRLEPEDFAVFYCQYYGGSPGFTFGPGTKVDFKR
notes: as for B2

- binding result [8]: binds
B9: TPAN1004 (antibody, V domains shown)
VH: QIQLVQSGAEVKKPGASVKVSCKTSGYTFTHYGVAWVRQAPGQGPEWMGWISPYNGNIEYGQKFQGRVTMTTDTSTNTAYMELRSLRYDDTAVYYCARDLDEINSSWLDPWGQGTLIIVSP
VL: EIVLTQSPATLSLSPGERATLSCRASQSVSSNYLAWYQQKPGQAPRLLIHGASSRATGFPDRFSGSGSGTDFTLTINRLEPEDFAVYYCQQYGTSPQTFGQGTKVEIKR
notes: as for B2
